These results are taken from patent US20040033954A1, “Therapeutic method for combined use of modified CNTF and thiadolidinedione” (priority 2002, published 2004).

For series [1] the following is noted: cited from earlier work.
The next series relates to C57BL/KsJ db/db mice. As to the kind of experiment: Body weight and food intake of db/db mice under daily treatment. It counts as in vivo. As to the method: FIG. 1 is a graph of the effect of co-administration of Axokine™ (SEQ ID NO:1) (0.1 or 0.3 mg/kg s.c.), Avandia™ (3 or 10 mg/kg/day oral gavage) , or vehicle for 12 days on body weight in C57BL/KsJ db/db mice (% change from the first day of treatment). At day 5 (arrow), two combined treatment groups were initiated receiving Avandia™ (3 mg/kg/day, oral gavage)+Axokine™ (0.1 or 0.3 mg/kg s.c.). All data represents the mean (n≧6)±SEM.
C57BL/KsJ db/db mice were treated by daily administration of Axokine™ (SEQ ID NO:1) (0.1 or 0.3 mg/kg s.c.), Avandia™ (3 or 10 mg/kg/day oral gavage), and vehicle (vehicle) for […], and the effect on body weight determined (FIG. 1, shown as the % change from the first day of treatment). […] A combined treatment group consisted of Avandia™ (3 mg/kg/day, oral gavage) +Axokine™ (0.1 or 0.3 mg/kg s.c.) administered for the […] (arrow, FIG. 1). All data represents the mean (n>6)±SEM.

The subject of a further series is C57Ks/J db/db male mice. The series can be described thus: Fatty liver of db/db mice, Oil-Red O staining for neutral lipid. It counts as in vivo. Conditions: 10-week-old db/db male mice; Avandia 3 or 10 mg/kg/day oral gavage for 13 days, ± Axokine 0.1 or 0.3 mg/kg/day in the last 8 days. As to the method:
The effects of Avandia™ administration ±Axokine™ (SEQ ID NO:1) on fatty liver of db/db mice was examined. 10-week-old C57Ks/J db/db male mice were treated for 13 days with either vehicle or Avandia™ alone (3 or 10 mg/kg/day) by oral gavage or ±Axokine™ (0.1 or 0.3 mg/kg/day) in the last 8 days. 24 hours after the last administration (day 14) all animals were anesthetized , the liver removed and rapidly frozen until it could be processed. The tissues were sectioned, mounted on glass, and stained with Oil-Red O for the detection of neutral lipid.

For series [2] the following is noted: previously found by the applicant; cited from earlier work.
Setting [3] is: daily injection 0.1 or 0.3 mg/kg s.c.

For the molecule `CN(CCOc1ccc(CC2SC(=O)NC2=O)cc1)c1ccccn1` (stereo not shown) [Avandia™, rosiglitazone], the body weight result in series [1] (Chaput et al. (2000)) is “increased body weight”.
For the molecule `Cc1c(C)c2c(c(C)c1O)CCC(C)(COc1ccc(CC3SC(=O)NC3=O)cc1)O2` (stereo not shown) [troglitazone], in series [1] (patients, Lebovitz et al. (2002)), the hepatic reaction result was “idiosyncratic hepatic reaction leading to hepatic failure and death in some patients”.

B1: Axokine™: modified CNTF molecule (SEQ ID NO:1) with improved physical and chemical properties, which activates the CNTF receptor (protein)
chain: MAFTEHSPLTPHRRDLASRSIWLARKIRSDLTALTESYVKHQGLNKNINLDSADGMPVASTDRWSELTEAERLQENLQAYRTFHVLLARLLEDQQVHFTPTEGDFHQAIHTLLLQVAAFAYQIEELMILLEYKIPRNEADGMPINVGDGGLFEKKLWGLKVLQELSQWTVRSIHDLRFISSHQTG
Consider B1, for which, in the series with C57BL/KsJ db/db mice (setting [3]), the body weight entry is listed as “caused weight loss” and the food intake entry was “decreased food intake”. Further, the “body weight with increasing doses, versus vehicle control groups” value with C57BL/KsJ db/db mice (increasing doses, ANOVA, P<0.0001 in all cases) is “further reduction in body weight”. In the series on C57Ks/J db/db male mice, the “deposition of neutral lipid in liver (Oil-Red O staining)” value is “reduced staining with Oil Red O”. The “effect on food intake and body weight, blood glucose and tolerance, and serum insulin levels” value in series [2] is reported as “profound effect”.
